The results in this text go back to article PMC4949388 (Brain, 2015).

For data set [1], the target named is CSF BuChE (human (endogenous in CSF)) (UniProt P06276). Kind of data set: co-sedimentation.
The data set “co-sedimentation” concerns the molecule itself. Kind of data set: co-sedimentation.

A word on the stoichiometry N: it is a count of units in the complex or per binding partner. For the molecule “CSF BuChE (from UniProt P06276 29-602) (enzyme)”, in data set [1], the stoichiometry N stood at 4.

B1: highly purified BuChE from human serum (enzyme)
chain: EDDIIIATKNGKVRGMNLTVFGGTVTAFLGIPYAQPPLGRLRFKKPQSLTKWSDIWNATKYANSCCQNIDQSFPGFHGSEMWNPNTDLSEDCLYLNVWIPAPKPKNATVLIWIYGGGFQTGTSSLHVYDGKFLARVERVIVVSMNYRVGALGFLALPGNPEAPGNMGLFDQQLALQWVQKNIAAFGGNPKSVTLFGESAGAASVSLHLLSPGSHSLFTRAILQSGSFNAPWAVTSLYEARNRTLNLAKLTGCSRENETEIIKCLRNKDPQEILLNEAFVVPYGTPLSVNFGPTVDGDFLTDMPDILLELGQFKKTQILVGVNKDEGTAFLVYGAPGFSKDNNSIITRKEFQEGLKIFFPGVSEFGKESILFHYTDWVDDQRPENYREALGDVVGDYNFICPALEFTKKFSEWGNNAFFYYFEHRSSKLPWPEWMGVMHGYEIEFVFGLPLERRDNYTKAEEILSRSIVKRWANFAKYGNPNETQNNSTSWPVFKSTEQKYLTLNTESTRIMTKLRAQQCRFWTSFFPKVLEMTGNIDEAEWEWKAGFHRWNNYMMDWKNQFNDYTSKKESCVGL
Take B1: the “stoichiometry N” value in the data set “co-sedimentation” amounted to 4.
